Reference: patent US20110105397A1, “METHOD FOR TREATING HEART FAILURE WITH STRESSCOPIN-LIKE PEPTIDES” (priority 2009, published 2011)
Like-named read-outs stand apart in the source and are kept apart here. Where no end group is shown, it is not given here.

T1: human corticotrophin releasing hormone receptor type 2 (CRHR2) (human, UniProt Q13324 1-411)
T1 sequence (looked up): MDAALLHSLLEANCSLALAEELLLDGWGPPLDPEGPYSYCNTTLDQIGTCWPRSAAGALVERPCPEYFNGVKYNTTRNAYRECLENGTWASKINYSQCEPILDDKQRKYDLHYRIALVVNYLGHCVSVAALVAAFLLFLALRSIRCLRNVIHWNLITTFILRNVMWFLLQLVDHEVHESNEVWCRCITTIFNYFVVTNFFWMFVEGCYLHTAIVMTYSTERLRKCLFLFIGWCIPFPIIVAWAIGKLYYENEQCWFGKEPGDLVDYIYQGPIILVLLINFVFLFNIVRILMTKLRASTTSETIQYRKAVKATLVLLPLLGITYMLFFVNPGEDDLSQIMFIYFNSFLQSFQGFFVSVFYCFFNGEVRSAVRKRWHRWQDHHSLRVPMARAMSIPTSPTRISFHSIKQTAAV

T2: human corticotrophin releasing hormone receptor type 2 (CRHR2) (human) (UniProt Q13324)
T2 sequence (looked up): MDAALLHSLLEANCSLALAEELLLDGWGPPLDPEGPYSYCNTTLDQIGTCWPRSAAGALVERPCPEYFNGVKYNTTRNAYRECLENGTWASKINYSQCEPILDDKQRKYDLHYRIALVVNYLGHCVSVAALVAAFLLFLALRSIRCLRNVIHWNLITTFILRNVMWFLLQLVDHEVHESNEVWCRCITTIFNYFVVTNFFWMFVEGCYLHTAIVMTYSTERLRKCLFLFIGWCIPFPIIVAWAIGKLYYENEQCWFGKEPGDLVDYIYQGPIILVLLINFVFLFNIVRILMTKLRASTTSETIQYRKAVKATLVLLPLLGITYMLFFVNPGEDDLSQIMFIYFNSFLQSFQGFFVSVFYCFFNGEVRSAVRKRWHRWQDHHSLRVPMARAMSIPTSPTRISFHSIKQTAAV

T3: human corticotrophin releasing hormone receptor type 1 (CRHR1) (human, UniProt P34998 24-415)
T3 sequence (looked up): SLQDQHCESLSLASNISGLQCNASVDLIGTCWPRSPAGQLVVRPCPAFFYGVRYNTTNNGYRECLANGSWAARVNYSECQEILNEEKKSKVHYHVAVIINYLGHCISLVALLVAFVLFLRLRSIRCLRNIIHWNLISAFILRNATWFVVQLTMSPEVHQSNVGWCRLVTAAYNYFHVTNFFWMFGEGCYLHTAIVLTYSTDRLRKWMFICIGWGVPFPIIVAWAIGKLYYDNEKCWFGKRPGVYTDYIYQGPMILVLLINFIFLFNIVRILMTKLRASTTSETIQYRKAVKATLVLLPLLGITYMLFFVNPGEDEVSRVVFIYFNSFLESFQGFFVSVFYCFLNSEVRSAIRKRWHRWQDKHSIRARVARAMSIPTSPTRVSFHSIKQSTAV

T4: human corticotrophin releasing hormone receptor type 1 (CRHR1) (human), P34998
T4 chain: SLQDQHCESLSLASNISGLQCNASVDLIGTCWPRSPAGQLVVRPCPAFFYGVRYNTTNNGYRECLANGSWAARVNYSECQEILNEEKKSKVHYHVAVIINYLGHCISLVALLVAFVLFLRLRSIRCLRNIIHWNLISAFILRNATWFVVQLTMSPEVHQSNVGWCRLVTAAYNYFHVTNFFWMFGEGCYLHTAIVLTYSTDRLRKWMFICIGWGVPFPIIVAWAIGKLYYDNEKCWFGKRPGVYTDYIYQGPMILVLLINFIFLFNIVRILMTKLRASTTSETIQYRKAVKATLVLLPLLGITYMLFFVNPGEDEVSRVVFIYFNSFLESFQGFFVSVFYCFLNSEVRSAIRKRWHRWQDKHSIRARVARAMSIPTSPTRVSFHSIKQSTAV


Tests used:
[1] = target: T1, human corticotrophin releasing hormone …; test: cell-based or functional assay
[2] = target: T1, human corticotrophin releasing hormone …; test: cell-based or functional assay; remark: listed apart in the source
[3] = target: T2, human corticotrophin releasing hormone receptor type 2 (CRHR2) (human); test: radioligand competition against [125I]-anti-sauvagine-30, membranes of SK-N-MC cells with human CRHR2
[4] = target: T2, human corticotrophin releasing hormone receptor type 2 (CRHR2) (human); test: cell-based or functional assay
[5] = target: T3, human corticotrophin releasing hormone …; test: cell-based or functional assay
[6] = target: T4, human corticotrophin releasing hormone …; test: radioligand competition against [125I]-(Tyr0)-sauvagine, CRHR1 assay, cell membranes; conditions: remark: other sources report otherwise
[7] = target: T2, human corticotrophin releasing hormone receptor type 2 (CRHR2) (human); test: cell-based or functional assay; remark: listed apart in the source

fold decrease in potency against the amidated parent peptide, cAMP [1] [fold]	pA50 [2]	pKI [3]	pA50 [4]	pA50 [5]	pKI [6]	pA50 [7]	Binder
~200	7.1 -log10(M)	–	–	–	–	–	TKFTLSLDVPTNIMNLLFNIAKAKNLRAQAAANAHLMAQI-OH [non-amidated h-SCP]
–	–	8.51 -log10(M)	9.08 -log10(M)	9.19 -log10(M)	–	–	DDPPLSIDLTFHLLRTLLELARTQSQRERAEQNRIIFDSV-NH2 [r-UCN1]
–	–	6.49 -log10(M)	–	< 5 -log10(M)	4.96 -log10(M)	9.26 -log10(M)	FTLSLDVPTNIMNLLFNIAKAKNLRAQAAANAHLMAQI-NH2 [human urocortin III]
